Laboratory results taken from patent US10202443 (UNIVERSIT LAVAL, dated 2019).

Target: T1, TDP-43 1-206 amino acid fragment, containing the RRM1 domain (Homo sapiens (Human), UniProt Q13148 1-206)
T1 construct: Spotted on membranes for the dot blot; also called amino acids 1-206 of TDP-43
Test: dot blot, scFv-conditioned medium, anti-myc HRP
Method: Example 6: Anti-TDP-43 Antibodies Having an scFv Format Detect TDP-43 RRM1 Domain Different concentrations of TDP-43 1-206 amino acid fragment, containing the RRM1 domain were loaded onto membranes by dot blot. Membranes were incubated overnight with media from Hek293 cells that had been transfected with pScFv9 expression plasmid containing the nucleic acids encoding E6_VH1Vk9 and E6_VH7Vk9. The myc signal was detected using anti-myc HRP antibody incubation.

T1 sequence (Q13148 1-206): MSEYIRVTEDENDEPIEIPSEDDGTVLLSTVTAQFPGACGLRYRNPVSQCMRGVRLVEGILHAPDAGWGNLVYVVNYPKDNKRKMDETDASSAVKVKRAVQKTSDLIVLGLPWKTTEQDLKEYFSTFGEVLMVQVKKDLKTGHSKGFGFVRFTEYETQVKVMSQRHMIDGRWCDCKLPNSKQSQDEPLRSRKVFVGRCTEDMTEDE

Row | Binder | binding result
1 | E6_VH1Vκ9 scFv antibody (scFv, The signal is left out here; Used as conditioned medium or inside transfected cells; also called E6_VH1Vk9; VH1Vk9) scFv: LQESGGGLVQPGGSMKLSCVASGFTSSNYWLNWVRQSPERGLEWVAEIRLKSNNYATNYAESVKGRFTISRDDSKSSVYLQVNNLRAEDTGIYYCTRSTARATPYYFDYWGQGTTVTVSSGGGGSGGGGSGGGGSDIELTQSPSSLAVSAGEKVTMSCKSSQSLLNSRARKNFLTWYQQKPGQSPKLLIYWASTRESGVPDRFTGSGSGTDFTLTISSVQAEDLAVYYCKQSYNLYTFGGGTKLEEQKLISEEDLN | binds
2 | E6_VH7Vκ9 scFv antibody (scFv, The signal is left out here; It differs from E6_VH1Vκ9 by one residue (Q instead of E); also called E6_VH7Vk9; VH7Vk9) scFv: LQQSGGGLVQPGGSMKLSCVASGFTSSNYWLNWVRQSPERGLEWVAEIRLKSNNYATNYAESVKGRFTISRDDSKSSVYLQVNNLRAEDTGIYYCTRSTARATPYYFDYWGQGTTVTVSSGGGGSGGGGSGGGGSDIELTQSPSSLAVSAGEKVTMSCKSSQSLLNSRARKNFLTWYQQKPGQSPKLLIYWASTRESGVPDRFTGSGSGTDFTLTISSVQAEDLAVYYCKQSYNLYTFGGGTKLEEQKLISEEDLN | binds
